{"source": "paper PMC6065357", "key": {"[1]": {"molecular_target": "NGF in the sSorCS2-NGF crystal (degradation product of the proNGF construct) (UniProt P01139)", "experiment": "crystal structure; sSorCS2 mixed with proNGF 1:1.1, 1 mM calcium chloride; proNGF degraded to NGF in the drop; 0.225 M MES/bis-tris pH 6.6; 3.9 Å"}, "[2]": {"molecular_target": "mouse SorCS2 mature extracellular segment (sSorCS2, residues 117-1072) (mouse) (UniProt Q9EPR5)", "sequence (Q9EPR5 117-1072)": "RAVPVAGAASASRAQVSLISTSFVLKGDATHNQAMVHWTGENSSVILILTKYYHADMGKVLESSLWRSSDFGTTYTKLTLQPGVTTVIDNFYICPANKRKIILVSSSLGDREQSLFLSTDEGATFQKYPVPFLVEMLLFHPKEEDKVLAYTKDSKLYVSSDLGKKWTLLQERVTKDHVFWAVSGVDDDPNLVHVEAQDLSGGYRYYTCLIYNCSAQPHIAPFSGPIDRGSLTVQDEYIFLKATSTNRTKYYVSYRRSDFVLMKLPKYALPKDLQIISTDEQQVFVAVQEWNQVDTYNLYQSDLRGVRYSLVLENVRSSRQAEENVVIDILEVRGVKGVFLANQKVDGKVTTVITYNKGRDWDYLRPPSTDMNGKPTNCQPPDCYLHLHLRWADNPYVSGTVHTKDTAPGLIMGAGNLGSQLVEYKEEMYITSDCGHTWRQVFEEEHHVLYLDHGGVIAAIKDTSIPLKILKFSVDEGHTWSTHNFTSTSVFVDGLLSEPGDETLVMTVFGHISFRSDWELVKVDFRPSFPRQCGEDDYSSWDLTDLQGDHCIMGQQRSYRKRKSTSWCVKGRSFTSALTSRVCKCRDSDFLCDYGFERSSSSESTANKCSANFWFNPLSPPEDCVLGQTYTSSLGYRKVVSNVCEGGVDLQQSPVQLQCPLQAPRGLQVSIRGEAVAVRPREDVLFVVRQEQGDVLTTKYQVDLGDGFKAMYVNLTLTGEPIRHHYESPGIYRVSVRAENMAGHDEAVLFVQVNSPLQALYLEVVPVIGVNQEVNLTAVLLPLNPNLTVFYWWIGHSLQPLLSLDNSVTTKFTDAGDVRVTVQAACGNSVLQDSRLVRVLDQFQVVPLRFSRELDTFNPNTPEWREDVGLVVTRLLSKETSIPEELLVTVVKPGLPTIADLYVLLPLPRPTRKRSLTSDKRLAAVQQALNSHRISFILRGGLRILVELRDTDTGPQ", "experiment": "crystal structure; sSorCS2 mixed with proNGF 1:1.1, 1 mM calcium chloride; proNGF degraded to NGF in the drop; 0.225 M MES/bis-tris pH 6.6; 3.9 Å"}, "[3]": {"molecular_target": "mouse mature nerve growth factor (NGF) (mouse) (UniProt P01139)", "sequence (P01139 122-241)": "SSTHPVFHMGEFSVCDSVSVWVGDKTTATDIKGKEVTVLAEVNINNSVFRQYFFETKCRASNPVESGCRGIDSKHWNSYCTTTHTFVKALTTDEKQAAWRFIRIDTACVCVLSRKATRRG", "experiment": "SPR; IBIS MX96; NGF, proNGF and proBDNF amine-coupled to a P-COOH SensEye sensor; wt and mutant sSorCS2 flowed as analyte; 25 mM HEPES pH 7.4, 150 mM NaCl, 0.005 % Tween 20; 25 °C; equilibrium binding, one site saturation model (two site saturation model for proBDNF)"}, "[4]": {"molecular_target": "pro-nerve growth factor (proNGF, residues 19-241, furin sites changed to AA) (UniProt P01139)", "experiment": "SPR; IBIS MX96; NGF, proNGF and proBDNF amine-coupled to a P-COOH SensEye sensor; wt and mutant sSorCS2 flowed as analyte; 25 mM HEPES pH 7.4, 150 mM NaCl, 0.005 % Tween 20; 25 °C; equilibrium binding, one site saturation model (two site saturation model for proBDNF)"}}, "data": [{"substance": "NGF in the sSorCS2-NGF crystal (degradation product of the proNGF construct) (from UniProt P01139 122-241) (ligand)", "values": [{"measurement": "stoichiometry N", "setting": "[1]", "value": 2}, {"measurement": "stoichiometry N (NGF chains per sSorCS2 chain)", "setting": "[2]", "value": 2}]}, {"substance": "mouse SorCS2 mature extracellular segment (sSorCS2, residues 117-1072), Q9EPR5 117-1072 (receptor; other documents disagree on this pair)", "values": [{"measurement": "Kd", "setting": "[3]", "value": 0.236, "unit": "µM"}]}, {"substance": "mouse SorCS2 mature extracellular segment (sSorCS2, residues 117-1072) (from UniProt Q9EPR5 117-1072) (receptor)", "values": [{"measurement": "Kd", "setting": "[4]", "value": 0.043, "unit": "µM"}]}]}
